Tested on: E. coli JF496 (ubiF411)
Experiment: JF496 complementation (growth rescue) assay
Format: cell-based
Details: for rescue of bacterial growth under selective condition: compared with vector pET16 control; for Activity in JF496 system: C. elegans CLK-1 variants expressed in JF496, growth rate relative to wild type CLK-1
Excerpt: JF496 is useful for complementation assays using eukaryotic clk-1. As with all other ubi mutants, JF496 has a weak growth in liquid culture, and cannot use succinate as a unique carbon source. These characteristics were used to develop a gain-of-function assay, where JF496 was transformed with a eukaryotic clk-1 (here from C. elegans) and then wild-type growth was identified. Transgenic E. coli ubiF (Kwon et al., 2000 FEMS Microbiol Lett, 186, 157–161), and clk-1 from proteobacteria (Stenmark et al., 2001 J Biol Chem, 276, 33297–33300) have been tested in JF496.
Growth conditions—For complementation assays, plasmids are freshly transformed by electroporation into E. coli JF496 ubiF(DE3) and grown overnight at 37° C. in 5 mL LB with 50 μg/mL ampicillin. The cultures are diluted 1/10 and OD600 measured. A bacterial volume corresponding to an OD600 of 0.03 in 5 mL is taken, centrifuged and resuspended in 100 μl of M9 medium. It is then added into 5 mL M9 containing 1 mM MgSO4, 20 μM CaCl2, 0.5 μg/mL thiamine, 0.12% casamino acids, 40 μg/mL D-L-methionine, 100 μg/mL L-asparagine, trace metals and 50 μg/mL ampicillin. This medium is supplemented with 0.5% glucose or 0.5% succinate. E. coli JF496 is grown at 37° C. for 8 hours. Samples (700-μL) are taken at 2-hour intervals and the OD600 is measured in order to determine the growth rate.
Growth conditions—as described above in Section 6.1
A selection of CLK-1 variants were constructed by site-directed mutagenesis and cloned into the JF496 system to assess their enzymatic activity relative to the wild type. The respective strains of JF496-clk-1 variants were cultured as described and the growth rate of each were measured. The results as shown in Table 4 indicate that certain residues and regions are not tolerant of amino acid substitution (amino acid substitution is indicated by one-letter codes).

[1] = JF496, M9 buffer containing 0.5% glucose

B1: hclk-1: human clk-1 cDNA expressed in JF496 (protein, listed as Homo sapiens)
chain: MSCAGAAAAPRLWRLRPGARRSLSAYGRRTSVRFRSSGMTLDNISRAAVDRIIRVDHAGEYGANRIYAGQMAVLGRTSVGPVIQKMWDQEKDHLKKFNELMVTFRVRPTVLMPLWNVLGFALGAGTALLGKEGAMACTVAVEESIAHHYNNQIRTLMEEDPEKYEELLQLIKKFRDEELEHHDIGLDHDAELAPAYAVLKSIIQAGCRVAIYLSERL
modifications: Human CLK-1
notes: human clk-1 cDNA expressed in JF496
rescuing capacity [1]: lower than that of mclk-1 or C. elegans clk-1 | rescue of bacterial growth under selective condition [1]: rescues bacterial growth

B2: C. elegans clk-1: wild-type C. elegans CLK-1 (DMQ hydroxylase) expressed from pET16 in JF496 (protein)
chain: MFRVITRGAHTAASRQALIEKIIRVDHAGELGADRIYAGQLAVLQGSSVGSVIKKMWDEEKEHLDTMERLAAKHNVPHTVFSPVFSVAAYALGVGSALLGKEGAMACTIAVEELIGQHYNDQLKELLADDPETHKELLKILTRLRDEELHHHDTGVEHDGMKAPAYSALKWIIQTGCKGAIAIAEKI
modifications: C. elegans; C. elegans CLK-1
notes: wild-type C. elegans CLK-1 (DMQ hydroxylase) expressed from pET16 in JF496
rescue of JF496 growth defect (FIG. 6, JF496 transformed with C. elegans clk-1): able to rescue the JF496 growth defect

B3: E. coli UbiF: E. coli UbiF expressed from a plasmid in JF496 (protein)
chain: MTNQPTEIAIVGGGMVGGALALGLAQHGFAVTVIEHAEPAPFVADSQPDVRISAISAASVSLLKGLGVWDAVQAMRCHPYRRLETWEWETAHVVFDAAELKLPLLGYMVENTVLQQALWQALEAHPKVTLRVPGSLIALHRHDDLQELELKGGEVIRAKLVIGADGANSQVRQMAGIGVHAWQYAQSCMLISVQCENDPGDSTWQQFTPDGPRAFLPLFDNWASLVWYDSPARIRQLQNMNMAQLQAEIAKHFPSRLGYVTPLAAGAFPLTRRHALQYVQPGLALVGDAAHTIHPLAGQGVNLGYRDVDALIDVLVNARSYGEAWASYPVLKRYQMRRMADNFIMQSGMDLFYAGFSNNLPPLRFMRNLGLMAAERAGVLKRQALKYALGL
modifications: E. coli; ubiF wildtype allele
notes: E. coli UbiF expressed from a plasmid in JF496
rescue of bacterial growth under selective condition [1]: rescued bacterial growth

B4: mclk-1: mouse clk-1 cDNA expressed in JF496 (protein, listed as Mus musculus)
chain: MSAAGAIAAASVGRLRTGVRRPFSEYGRGLIIRCHSSGMTLDNINRAAVDRIIRVDHAGEYGANRIYAGQMAVLGRTSVGPVIQKMWDQEKNHLKKFNELMIAFRVRPTVLMPLWNVAGFALGAGTALLGKEGAMACTVAVEESIANHYNNQIRMLMEEDPEKYEELLQVIKQFRDEELEHHDTGLDHDAELAPAYALLKRIIQAGCSAAIYLSERF
modifications: Mouse CLK-1
notes: mouse clk-1 cDNA expressed in JF496
rescue of bacterial growth under selective condition [1]: rescues bacterial growth

B5: CDB 717: C. elegans CLK-1 variant, mutation Y119A (protein, UniProt P48376 9-187, looked up, variant Y119A)
NADPH-dependent …: AHTAASRQALIEKIIRVDHAGELGADRIYAGQLAVLQGSSVGSVIKKMWDEEKEHLDTMERLAAKHNVPHTVFSPVFSVAAYALGVGSALLGKEGAMACTIAVEELIGQHANDQLKELLADDPETHKELLKILTRLRDEELHHHDTGVEHDGMKAPAYSALKWIIQTGCKGAIAIAEKI
Activity in JF496 system: Inactive

B6: CDB 707: C. elegans CLK-1 variant, mutation E147A (protein, UniProt P48376 9-187, looked up, variant E147A)
NADPH-dependent …: AHTAASRQALIEKIIRVDHAGELGADRIYAGQLAVLQGSSVGSVIKKMWDEEKEHLDTMERLAAKHNVPHTVFSPVFSVAAYALGVGSALLGKEGAMACTIAVEELIGQHYNDQLKELLADDPETHKELLKILTRLRDAELHHHDTGVEHDGMKAPAYSALKWIIQTGCKGAIAIAEKI
Activity in JF496 system: Active

B7: CDB 691: C. elegans CLK-1 variant, mutation E147K (protein, UniProt P48376 9-187, looked up, variant E147K)
NADPH-dependent …: AHTAASRQALIEKIIRVDHAGELGADRIYAGQLAVLQGSSVGSVIKKMWDEEKEHLDTMERLAAKHNVPHTVFSPVFSVAAYALGVGSALLGKEGAMACTIAVEELIGQHYNDQLKELLADDPETHKELLKILTRLRDKELHHHDTGVEHDGMKAPAYSALKWIIQTGCKGAIAIAEKI
Activity in JF496 system: Active

From patent US7132274B2, “Method for identifying modulators of CLK-1 and UbiF activity” (priority 2003, dated 2006)
